B1: TRAF3 (mouse, endogenous) (natural protein)
chain: MESSKKMDAAGTLQPNPPLKLQPDRGAGSVLVPEQGGYKEKFVKTVEDKYKCEKCRLVLCNPKQTECGHRFCESCMAALLSSSSPKCTACQESIIKDKVFKDNCCKREILALQVYCRNEGRGCAEQLTLGHLLVHLKNECQFEELPCLRADCKEKVLRKDLRDHVEKACKYREATCSHCKSQVPMIKLQKHEDTDCPCVVVSCPHKCSVQTLLRSELSAHLSECVNAPSTCSFKRYGCVFQGTNQQIKAHEASSAVQHVNLLKEWSNSLEKKVSLLQNESVEKNKSIQSLHNQICSFEIEIERQKEMLRNNESKILHLQRVIDSQAEKLKELDKEIRPFRQNWEEADSMKSSVESLQNRVTELESVDKSAGQAARNTGLLESQLSRHDQMLSVHDIRLADMDLRFQVLETASYNGVLIWKIRDYKRRKQEAVMGKTLSLYSQPFYTGYFGYKMCARVYLNGDGMGKGTHLSLFFVIMRGEYDALLPWPFKQKVTLMLMDQGSSRRHLGDAFKPDPNSSSFKKPTGEMNIASGCPVFVAQTVLENGTYIKDDTIFIKVIVDTSDLPDP
B2: TRAF2 (mouse, endogenous) (natural protein)
chain: MAAASVTSPGSLELLQPGFSKTLLGTRLEAKYLCSACKNILRRPFQAQCGHRYCSFCLTSILSSGPQNCAACVYEGLYEEGISILESSSAFPDNAARREVESLPAVCPNDGCTWKGTLKEYESCHEGLCPFLLTECPACKGLVRLSEKEHHTEQECPKRSLSCQHCRAPCSHVDLEVHYEVCPKFPLTCDGCGKKKIPRETFQDHVRACSKCRVLCRFHTVGCSEMVETENLQDHELQRLREHLALLLSSFLEAQASPGTLNQVGPELLQRCQILEQKIATFENIVCVLNREVERVAVTAEACSRQHRLDQDKIEALSNKVQQLERSIGLKDLAMADLEQKVSELEVSTYDGVFIWKISDFTRKRQEAVAGRTPAIFSPAFYTSRYGYKMCLRVYLNGDGTGRGTHLSLFFVVMKGPNDALLQWPFNQKVTLMLLDHNNREHVIDAFRPDVTSSSFQRPVSDMNIASGCPLFCPVSKMEAKNSYVRDDAIFIKAIVDLTGL

Molecular target: hCD40–BAFF-R_(His159-Tyr) chimera (human | mouse) (UniProt P25942)
Assay: co-IP

| Binder | fold increase in recruitment against hCD40–BAFF-RWT (60 min) |
| --- | --- |
| B1 | 4 fold |
| B2 | 5 fold |

From publication PMC2989778
